Measured values from US12252531B2, “Methods of screening for high-affinity, isoform-selective TGFβ1 inhibitors” (Scholar Rock, Inc., priority 2018, dated 2025).
Substitutions are numbered along the chain they refer to.

Columns and labels:
[1] = in vivo, cited from earlier work
[2] = molecular target: Matrix-associated proTGFb1 (hLTBP1, hLTBP3); experiment: BLI (OCTET), average over matrix-associated complexes; format: binding, human; details: average KD of (B) and (C), read-out: (D) ECM AVRG
Description: (§1) Column (A) of the table lists monoclonal antibodies with discrete amino acid sequences. […] Columns (B), (D), (E) and (F) provide affinities of each of the listed antibodies, measured in KD. […] Average KD values of (B) and (C) are shown in the corresponding column (D), which collectively represents affinities of the antibodies to ECM- or matrix-associated proTGFβ1 complexes. Similarly, Average KD values of (E) and (F) are shown in the corresponding column (G), which collectively represents affinities of the antibodies to cell-surface or cell-associated proTGFβ1 complexes. Finally, relative ratios between the average KD values from columns (D) and (G) are expressed as “fold bias” in column (H). Thus, the greater the number of column (H) is, the greater bias exists for the particular antibody, when comparing binding preferences of the antibody for matrix-associated complexes and cell-surface complexes. This is one way of quantitatively representing and comparing inherent bias of antibodies to their target complexes. Such analyses may be useful in guiding the selection process for a candidate antibody for particular therapeutic use.
(§2) The concept of “uniformity” or lack of bias is further illustrated in Table 8. Average KD values between the two matrix-associated and cell-associated complexes are calculated, respectively (see columns (D) and (G)). These average KD values can then be used to ask whether bias in binding activities exists between complexes associated with matrix vs. complexes associated with cell surface (e.g., immune cells). Bias may be expressed as “fold-difference”in the average KD values, as illustrated in Table 8.

[3] = tested on: LTBP1-proTGFβ1, LTBP3-proTGFβ1, GARP-proTGFβ1 and LRRC33-proTGFβ1 complexes; experiment: BLI (OCTET), binding profile and bias across the four complexes; design: species or system human; details: ratio of average KD cell-associated / matrix-associated
Description: as §1, §2

[4] = tested on: Cell-associated proTGFb1 (hGARP, hLRRC33); experiment: BLI (OCTET), average over cell-associated complexes; format: binding, human; details: average KD of (E) and (F), read-out: (G) Cell AVRG
Description: as §1, §2

[5] = molecular target: Matrix-associated proTGFβ1 (hLTBP1, hLTBP3); experiment: MSD-SET, average over matrix-associated complexes; format: binding, human; details: average of (B) and (C), read-out: (D) ECM AVRG
Description: as §1
(§3) Solution equilibrium titration (“SET”) is an assay whereby binding between two molecules (such as an antigen and an antibody that binds the antigen) can be measured at equilibrium in a solution. For example, Meso-Scale Discovery (“MSD”)-based SET, or MSD-SET, is a useful mode of determining dissociation constants for particularly high-affinity protein-protein interactions at equilibrium (see, for example: Ducata et al. (2015) J Biomolecular Screening 20(10): 1256-1267). The SET-based assays are particularly useful for determining KD values of antibodies with sub-nanomolar (e.g., picomolar) affinities.

[6] = tested on: hLTBP1-proTGFβ1, hLTBP3-proTGFβ1, hGARP-proTGFβ1 and hLRRC33-proTGFβ1; experiment: MSD-SET, binding profile and bias across the four human LLCs; details: ratio of average KD cell-associated / matrix-associated
Description: Solution Equilibrium Titration (SET): The SET is an assay whereby binding between two molecules (such as an antigen and an antibody that binds the antigen) can be measured at equilibrium in a solution. For example, Meso-Scale Discovery (“MSD”)-based SET, or MSD-SET, is a useful mode of determining dissociation constants for particularly high-affinity protein-protein interactions at equilibrium, such as picomolar-affinity antibodies binding to their antigens (see, for example: Ducata et al. (2015) J Biomolecular Screening 20(10): 1256-1267). The SET-based assays are particularly useful for determining KD values of antibodies with sub-nanomolar (e.g., picomolar) affinities.
as §3
For solution equilibrium titration-based binding assays, protein complexes that comprise one of the presenting molecules such as those shown above may be employed as antigen (presenting molecule-TGFβ1 complex, or an LLC). Test antibodies are allowed to form antigen-antibody complex in solution. Antigen-antibody reaction mixtures are incubated to allow an equilibrium to be reached; the amount of the antigen-antibody complex present in the assay reactions can be measured by suitable means well known in the art. As compared to BLI-based assays, SET-based assays are less affected by on/off rates of the antigen-antibody complex, allowing sensitive detection of very high affinity interactions.

[7] = tested on: Cell-associated proTGFβ1 (hGARP, hLRRC33); experiment: MSD-SET, average over cell-associated complexes; format: binding, human; details: average of (E) and (F), read-out: (G) Cell AVRG
Description: as §1, §3

For “GC1008: human analog of 1D11, pan-TGFβ antibody”, the “Exposure: DN Cmax” value ([1]; human) is given as “DN Cmax~(350 ng/mL)mg” and the “previously reported adverse events (CTCAE grade)” value [1] is given as “leukocytosis (grade 3), fatigue (grade 3), hypoxia (grade 3), asystole (grade 5), leukopenia (grade 1), recurrent, transient, tender erythematous, nodular skin lesions, suppurative dermatitis, and herpes zoster”.

B1: Ab21: proTGFβ1 antibody; VH SEQ ID NO: 129, VL SEQ ID NO: 15 (antibody, V domains shown)
VH: EVQLVESGGGLVQPGGSLRLSCAASGFTFSSFSMDWVRQAPGKGLEWVSYISPDASTIYYADSVKGRFTISRDNAKNSLYLQMNSLRAEDTAVYYCARGVLDYGDMLDPWGQGTLVTVSS
VL: DIQMTQSPSSLSASVGDRVTITCQASQDITNYLNWYQQKPGKAPKLLIYDASNLETGVPSRFSGSGSGTDFTFTISSLQPEDIATYYCQQADNHPPWTFGGGTKVEIK
For B1, the Kd [2] was 0.246 nM, the “(H) G/D (fold bias)” value [3] was 2.613 fold and the Kd [4] was 0.644 nM.

B2: Ab24: proTGFβ1 antibody; VH SEQ ID NO: 132, VL SEQ ID NO: 15 (antibody, V domains shown)
VH: B1 VH with G16R, S33A, D35Y
VL: B1 VL
With B2 the Kd [5] was 0.023 nM, the “(H) G/D (fold bias)” value [6] was 4.35 fold and the Kd [7] was 0.1 nM. The Kd [2] was 0.222 nM, the “(H) G/D (fold bias)” value [3] was 2.421 fold and the Kd [4] was 0.537 nM.

B3: Ab22: proTGFβ1 antibody; VH SEQ ID NO: 130, VL SEQ ID NO: 15 (antibody, V domains shown)
VH: B1 VH with S30G, D35N, S52H, P53S
VL: B1 VL
In the case of B3, the Kd [5] is reported as 0.042 nM, the “(H) G/D (fold bias)” value [6] is reported as 2.71 fold and the Kd [7] is reported as 0.114 nM. The Kd [2] was 0.324 nM, the “(H) G/D (fold bias)” value [3] was 2.147 fold and the Kd [4] was 0.695 nM.

B4: Ab27: proTGFβ1 antibody; VH SEQ ID NO: 135, VL SEQ ID NO: 15 (antibody, V domains shown)
VH: B1 VH with S31F, F32Y, S33A, D35N
VL: B1 VL
With B4 the Kd [2] was 0.208 nM, the “(H) G/D (fold bias)” value [3] was 1.738 fold and the Kd [4] was 0.361 nM.

B5: Ab29: proTGFβ1 antibody; VH SEQ ID NO: 137, VL SEQ ID NO: 15 (antibody, V domains shown)
VH: B1 VH with G16R, S33A, D35N, D62G, A97V, G99A
VL: B1 VL
With B5 the “(H) G/D (fold bias)” value [6] was 2.00 fold, the Kd [7] was 0.024 nM and the Kd [2] was 0.155 nM. The “(H) G/D (fold bias)” value [3] was 1.965 fold and the Kd [4] was 0.304 nM.

B6: Ab23: proTGFβ1 antibody; VH SEQ ID NO: 131, VL SEQ ID NO: 15 (antibody, V domains shown)
VH: B1 VH with D35N, D54S, S56D, S78T
VL: B1 VL
For B6, the Kd [2] was 0.443 nM, the “(H) G/D (fold bias)” value [3] was 2.028 fold and the Kd [4] was 0.897 nM.

B7: Ab26: proTGFβ1 antibody; VH SEQ ID NO: 134, VL SEQ ID NO: 15 (antibody, V domains shown)
VH: B1 VH with S78T
VL: B1 VL
With B7 the Kd [5] was 0.026 nM, the “(H) G/D (fold bias)” value [6] was 2.77 fold and the Kd [7] was 0.072 nM. For the same molecule, the Kd [2] was 0.197 nM, the “(H) G/D (fold bias)” value [3] was 2.500 fold and the Kd [4] was 0.492 nM.

B8: Ab32: proTGFβ1 antibody; VH SEQ ID NO: 140, VL SEQ ID NO: 15 (antibody, V domains shown)
VH: B1 VH with D35N, D54S, S56D, S78T, L101W, Y103M
VL: B1 VL
With B8 the Kd [5] was 0.032 nM, the “(H) G/D (fold bias)” value [6] was 1.60 fold and the Kd [7] was 0.051 nM. For the same molecule, the Kd [2] was 0.242 nM, the “(H) G/D (fold bias)” value [3] was 2.467 fold and the Kd [4] was 0.597 nM.

B9: Ab25: proTGFβ1 antibody; VH SEQ ID NO: 133, VL SEQ ID NO: 15 (antibody, V domains shown)
VH: B1 VH with S30G
VL: B1 VL
For B9, the Kd [2] was 0.184 nM, the “(H) G/D (fold bias)” value [3] was 2.431 fold and the Kd [4] was 0.449 nM.

B10: Ab28: proTGFβ1 antibody; VH SEQ ID NO: 136, VL SEQ ID NO: 15 (antibody, V domains shown)
VH: B1 VH with A97V
VL: B1 VL
In the case of B10, the Kd [2] is reported as 0.328 nM, the “(H) G/D (fold bias)” value [3] is reported as 1.838 fold and the Kd [4] is reported as 0.603 nM.

B11: Ab33: proTGFβ1 antibody; VH SEQ ID NO: 141, VL SEQ ID NO: 15 (antibody, V domains shown)
VH: B1 VH with D35N, D54S, S56D, S78T, R98H
VL: B1 VL
With B11 the Kd [5] was 0.009 nM, the “(H) G/D (fold bias)” value [6] was 3.00 fold and the Kd [7] was 0.027 nM. The Kd [2] was 0.145 nM, the “(H) G/D (fold bias)” value [3] was 2.083 fold and the Kd [4] was 0.302 nM.

B12: Ab30: proTGFβ1 antibody; VH SEQ ID NO: 138, VL SEQ ID NO: 15 (antibody, V domains shown)
VH: B1 VH with V100T
VL: B1 VL
With B12 the Kd [5] was 0.029 nM, the “(H) G/D (fold bias)” value [6] was 2.80 fold and the Kd [7] was 0.081 nM. For the same molecule, the Kd [2] was 0.296 nM, the “(H) G/D (fold bias)” value [3] was 2.307 fold and the Kd [4] was 0.684 nM.

B13: Ab31: proTGFβ1 antibody; VH SEQ ID NO: 139, VL SEQ ID NO: 15 (antibody, V domains shown)
VH: B1 VH with S78T, G99A
VL: B1 VL
In the case of B13, the Kd [5] is reported as 0.017 nM, the “(H) G/D (fold bias)” value [6] is reported as 3.41 fold and the Kd [7] is reported as 0.058 nM. For the same molecule, the Kd [2] was 0.208 nM, the “(H) G/D (fold bias)” value [3] was 2.376 fold and the Kd [4] was 0.495 nM.
